US20210155689A1 (SHANGHAI PHARMAEXPLORER, published 2021)
Primed or numbered codes have the meaning given here. No end group written: not given here. Biotin′ = biotin label at the C-terminus

Target: T1, PSSWGPRPRRYTK-Biotin (human)
T1 construct: Overlapping peptide of the outer loop of human LAG-3; also called LAG-3 Extra cyclic peptide
T1 peptide: PSSWGPRPRRYTK-{Biotin′}
Assay: peptide scanning ELISA, biotin peptide on streptavidin
Description: Fifteen overlapping peptides including the full length of the outer loop sequence were prepared and biotin was coupled to each C-terminus. Enzyme-linked immunosorbent assay (ELISA) was used to detect the binding of antibodies to these peptides. Streptavidin (sigma, Cat #M5432) was diluted with PBS to a final concentration of 1.0 μg/ml, and then added as 100 μl per well to a 96-well ELISA plate. The plate was sealed with plastic film and incubated overnight at 4° C. The plate was washed 2 times with the plate washing solution (PBS+0.01% Tween20) on the next day, and added with the blocking solution (PBS+0.01% Tween20+1% BSA) and blocked at room temperature for 1-2 hours. The blocking solution was poured off, and biotinylated peptides was added to a final concentration of 1 ug/ml, as 100 ul per well to the 96-well ELISA plate, incubated at 37° C. for 1-2 hours, then washed with plate washing solution (PBS+0.01% Tween20)2-3 times. Then the antibody samples to be tested were incubated as 100 μl per well at 37° C. for 1-2 hours, and then the plate was washed 2-3 times with a plate washing solution (PBS+0.01% Tween20). HRP (horseradish peroxidase) labeled secondary antibody was added, and the plate was incubated at 37° C. for 1-2 hours, and washed 2-3 times with a plate washing solution (PBS+0.01% Tween20). 100 μl of TMB substrate was added to each well. After incubated at room temperature for 15-30 minutes, the plate was added with 100 μl of stop solution (1.0N HCl) to each well.

Binder | binding result
405B8H3 (mouse antibody purified from hybridoma) (antibody, V domains shown, also called mAb103-405B8H3; 405B81-13) VH: QVQLQQSGAELVRPGASVTLSCKASGYTFTDYEMHWVKQTPVHGLEWIGATDPETGNSAYNQKFKGKAIMTADKSSSTAYMELRSLTSEDSAVYYCISTGWNDWGQGTSLTVSS VL: DIKMTQSPSSMYASLGERVTITCKASQDINSYLSWFQQKPGKSPKTLIYRADRLLDGVPSRFSGSGSGQDYSLTISSLEYGDMGIYYCLQYDEFPYTFGGGTKLEIK | binds

What follows are binders tested against T2, mouse LAG-3 protein with hFc tag (mLAG-3-hFc protein) (mouse; human, UniProt Q61790 24-442) (assay: ELISA, mLAG-3-hFc coated; 0.0001 nM).
T2 construct: Made in HEK293 cells; also called mouse LAG-3 extracellular domain protein; not shown: human IgG Fc fragment (hFc) of the pCpC vector
T2 sequence: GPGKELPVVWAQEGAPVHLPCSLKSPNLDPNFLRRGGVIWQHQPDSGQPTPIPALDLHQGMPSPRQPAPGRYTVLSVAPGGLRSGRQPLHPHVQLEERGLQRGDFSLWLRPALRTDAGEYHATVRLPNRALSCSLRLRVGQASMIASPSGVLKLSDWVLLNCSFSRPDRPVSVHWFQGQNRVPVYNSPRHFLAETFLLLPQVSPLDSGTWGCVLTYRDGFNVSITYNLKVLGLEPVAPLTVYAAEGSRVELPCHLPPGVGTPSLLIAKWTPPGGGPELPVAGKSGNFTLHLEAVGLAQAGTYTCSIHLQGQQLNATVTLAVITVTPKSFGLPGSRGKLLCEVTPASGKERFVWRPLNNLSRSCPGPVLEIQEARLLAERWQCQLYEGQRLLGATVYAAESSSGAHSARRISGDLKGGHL
Description: The plate was sealed with plastic film and incubated overnight at 4° C. The plate was washed 2 times with the plate washing solution (PBS+0.01% Tween20) on the next day, and added with the blocking solution (PBS+0.01% Tween20+1% BSA) and blocked at room temperature for 1-2 hours. The blocking solution was poured out, and the plate was added with 50-100 μl of the antibody sample to be tested to each well, incubated at 37° C. for 1-2 hours, and washed 2-3 times with a plate washing solution (PBS+0.01% Tween20). HRP (horseradish peroxidase) labeled secondary antibody was added, and the plate was incubated at 37° C. for 1-2 hours, and washed 2-3 times with a plate washing solution (PBS+0.01% Tween20). 100 μl of TMB substrate was added to each well. After incubated at room temperature for 15-30 minutes, the plate was added with 100 μl of stop solution (1.0N HCl) to each well.

Binder | OD450 [OD450]
405B8H3 (LAG-3 mouse-human chimeric antibody) (antibody, V domains shown, also called mouse-human chimeric antibody 405B8H3) VH: QVQLQQSGAELVRPGASVTLSCKASGYTFTDYEMHWVKQTPVHGLEWIGATDPETGNSAYNQKFKGKAIMTADKSSSTAYMELRSLTSEDSAVYYCISTGWNDWGQGTSLTVSS VL: DIKMTQSPSSMYASLGERVTITCKASQDINSYLSWFQQKPGKSPKTLIYRADRLLDGVPSRFSGSGSGQDYSLTISSLEYGDMGIYYCLQYDEFPYTFGGGTKLEIK | 0.08
105F1E10 (LAG-3 mouse-human chimeric antibody) (antibody, V domains shown) VH: EVQLQQSGPELVKPGASVKMSCRASGYTFTDFKMHWMKQSHGKSLEWIGYIAPNNGGTAYNQKFRGKATLTVNESSNTAYMELRSLTSEDSAVYYCVDWDDVDYWGQGTTLTVSS VL: DIKMTQSPSSMYASLGERVTITCKASQDINSYLSWFQQKSGKSPKTLIYRANRLVDGVPSRFSGSGSGQDYSLTISSLEYEDMGIYYCLQYVEFPLTFGAGTKLELK | 0.09
409D4E10 (LAG-3 mouse-human chimeric antibody) (antibody, V domains shown) VH: QVQLQQSGAELVRPGASVTLSCKASGNTFTDYEMHWVKQTPVHGLEWIGATDPETDNTAYNQKFKGKAILTTDKSSSTAYMELRSLTSEDSAVYYCITSGWNDWGQGTSLTVSS VL: DIKMTQSPSSMYASLGERVTITCKASQDINSYLSWFQQKPGKSPKTLIYRANRLLDGVPSRFSGSGSGQDYSLTISSLEYEDMGIYYCLQYNEFPYTFGGGTKLEIK | 0.1
409B11E12 (LAG-3 mouse-human chimeric antibody) (antibody, V domains shown) VH: QVQLQQSGAELVRPGASVTLSCKASGYTFTDYEMHWVKQTTVHGLEWIGATDPETSYSAYNQKFKGKAILTADKSSSTAYMELRSLTSEDSAVYYCIATGWNDWGQGTSLTVSS VL: DLKMTQSPSSMYASLGERVTITCKASQDINSYLSWFQQKPGKSPKTLIYRANRLLDGVPSRFSGSGSGQDYSLTISSLEYEDMGIYYCLQYDEFPYTFGGGTKLEIK | 0.09
556F6B8 (LAG-3 mouse-human chimeric antibody) (antibody, V domains shown, also called 556F8B8) VH: RVQLKQSGPGLVQPSQSLSITCTVSGFSLIKYGVHWVRQSPGEGLEWLGVIWRGGITDYNAAFMSRLSITKDNSKSQVFFKMNSLQADDTAIYYCAKWDGPLAMDYWGQGTSVTVSS VL: DIVMTQSHKFLSTSVGDRVSITCKASQDVGTTVAWYQQKPGQSPKLLIYWASTRHTGVPDRFTGSGSGTDFTLTISNVQSEDLADYFCQQYSSYPYTFGGGTKLEIK | 0.14

The binders below were run against T3, human LAG-3 (full length, on the cell surface) (human, UniProt P18627 23-525) (assay: FACS, HEK293-hLAG-3; 1.600 nM).
T3 construct: Full-length human LAG-3 expressed on cells; also called HEK293-hLAG-3; HEK293 cells transfected with LAG-3 gene
T3 sequence: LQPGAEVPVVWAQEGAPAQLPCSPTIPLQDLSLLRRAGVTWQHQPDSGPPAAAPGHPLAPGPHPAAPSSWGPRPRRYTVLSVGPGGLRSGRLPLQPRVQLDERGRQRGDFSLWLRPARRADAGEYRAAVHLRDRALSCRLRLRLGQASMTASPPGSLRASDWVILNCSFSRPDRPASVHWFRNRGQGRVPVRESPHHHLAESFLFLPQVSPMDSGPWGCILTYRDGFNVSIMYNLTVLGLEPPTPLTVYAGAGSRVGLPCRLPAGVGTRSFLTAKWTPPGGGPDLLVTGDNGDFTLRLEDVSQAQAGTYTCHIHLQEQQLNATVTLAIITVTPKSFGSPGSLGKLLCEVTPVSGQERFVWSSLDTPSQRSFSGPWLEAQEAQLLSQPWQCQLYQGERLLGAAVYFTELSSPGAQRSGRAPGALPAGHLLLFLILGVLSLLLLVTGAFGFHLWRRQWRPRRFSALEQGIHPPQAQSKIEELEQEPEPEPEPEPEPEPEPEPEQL
Source text: The pIRES plasmid with the monkey-derived full-length gene was transfected into the HEK293 cell line to construct a HEK293 stable cell line containing monkey LAG-3 (herein referred to as HEK293-cLAG-3 stable cell line). The HEK293-hLAG-3 stable cell line and HEK293-cLAG-3 stable cell line were expanded in a T-75 cell culture flask to a 90% confluence. The medium was aspirated, and the cells were washed with HBSS (Hanks' Balanced Salt Solution) 1-2 times, then treated with a enzyme-free cell dissociation fluid (Versene solution: Life technology) and the cells were collected. The cells were washed with HBSS buffer for 1-2 times. After counted, the cells were diluted with HBSS to 1-2×10⁶ cells per ml, added with 1% goat serum blocking solution, incubated on ice for 20-30 minutes, and then washed with HBSS for 2 times by centrifugation. The collected cells were suspended in the FACS buffer (HBSS+1% BSA) to 2×10⁶ cells/ml, added as 100 microliters per well to a 96-well FACS reaction plate, added with 100 microliters per well of the antibody sample to be tested, incubated on ice for 1-2 hours. The plate was washed twice with the FACS buffer by centrifugation, added with 100 microliters of fluorescent (Alexa 488)-labeled secondary antibodies per well, and incubated on ice for 0.5-1.0 hours. The plate was washed 2-3 times with FACS buffer by centrifugation, added with 100 μl fixative solution (4% Paraformaldehyde) per well to suspend the cells. 5-10 minutes later, it was washed 1-2 times with FACS buffer by centrifugation. The cells were suspended with 100 microliters of FACS buffer, FACS (FACSCalibur, BD) was used for detection and the results were analyzed.

Binder | Mean fluorescence intensity [MFI]
405B8H3 (mouse antibody purified from hybridoma) (antibody, V domains shown, also called mAb103-405B8H3; 405B81-13) VH: QVQLQQSGAELVRPGASVTLSCKASGYTFTDYEMHWVKQTPVHGLEWIGATDPETGNSAYNQKFKGKAIMTADKSSSTAYMELRSLTSEDSAVYYCISTGWNDWGQGTSLTVSS VL: DIKMTQSPSSMYASLGERVTITCKASQDINSYLSWFQQKPGKSPKTLIYRADRLLDGVPSRFSGSGSGQDYSLTISSLEYGDMGIYYCLQYDEFPYTFGGGTKLEIK | 99.4
